{"source": "patent US20210206804A1", "note": "Primed or numbered codes have the meaning given here. The star is where a group is joined. (^19F)FBA = O=C(c1ccc([19F])cc1)*; PEG11′ = not defined here", "data": [{"molecular_target": "T1, αvβ6 integrin (purified, captured on the ELISA plate), P06756", "T1 chain 1": "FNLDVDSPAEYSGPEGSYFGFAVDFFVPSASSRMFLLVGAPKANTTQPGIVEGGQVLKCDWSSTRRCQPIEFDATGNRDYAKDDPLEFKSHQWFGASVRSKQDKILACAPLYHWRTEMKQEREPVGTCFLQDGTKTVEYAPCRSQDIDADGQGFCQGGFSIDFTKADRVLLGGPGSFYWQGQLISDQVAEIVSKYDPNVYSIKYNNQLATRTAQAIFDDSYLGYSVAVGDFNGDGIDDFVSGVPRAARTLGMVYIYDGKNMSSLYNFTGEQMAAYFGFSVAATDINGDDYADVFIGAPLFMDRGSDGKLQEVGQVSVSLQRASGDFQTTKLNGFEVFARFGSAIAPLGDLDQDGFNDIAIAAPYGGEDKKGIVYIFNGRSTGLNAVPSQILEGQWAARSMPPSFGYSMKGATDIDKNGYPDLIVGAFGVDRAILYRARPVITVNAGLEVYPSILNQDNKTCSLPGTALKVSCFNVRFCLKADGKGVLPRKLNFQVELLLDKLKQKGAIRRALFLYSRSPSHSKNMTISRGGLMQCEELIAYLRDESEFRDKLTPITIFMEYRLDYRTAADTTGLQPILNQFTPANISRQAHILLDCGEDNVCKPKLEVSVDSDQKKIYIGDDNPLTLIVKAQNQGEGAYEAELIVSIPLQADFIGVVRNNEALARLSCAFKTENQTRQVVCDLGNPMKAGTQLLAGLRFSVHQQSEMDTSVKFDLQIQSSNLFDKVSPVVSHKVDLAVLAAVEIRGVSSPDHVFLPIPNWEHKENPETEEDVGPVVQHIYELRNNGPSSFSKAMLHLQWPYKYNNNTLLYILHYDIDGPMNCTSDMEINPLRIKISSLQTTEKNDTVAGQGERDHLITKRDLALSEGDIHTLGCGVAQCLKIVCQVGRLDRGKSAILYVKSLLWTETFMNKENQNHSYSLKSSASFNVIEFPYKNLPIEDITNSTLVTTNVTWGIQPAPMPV", "T1 chain 2": "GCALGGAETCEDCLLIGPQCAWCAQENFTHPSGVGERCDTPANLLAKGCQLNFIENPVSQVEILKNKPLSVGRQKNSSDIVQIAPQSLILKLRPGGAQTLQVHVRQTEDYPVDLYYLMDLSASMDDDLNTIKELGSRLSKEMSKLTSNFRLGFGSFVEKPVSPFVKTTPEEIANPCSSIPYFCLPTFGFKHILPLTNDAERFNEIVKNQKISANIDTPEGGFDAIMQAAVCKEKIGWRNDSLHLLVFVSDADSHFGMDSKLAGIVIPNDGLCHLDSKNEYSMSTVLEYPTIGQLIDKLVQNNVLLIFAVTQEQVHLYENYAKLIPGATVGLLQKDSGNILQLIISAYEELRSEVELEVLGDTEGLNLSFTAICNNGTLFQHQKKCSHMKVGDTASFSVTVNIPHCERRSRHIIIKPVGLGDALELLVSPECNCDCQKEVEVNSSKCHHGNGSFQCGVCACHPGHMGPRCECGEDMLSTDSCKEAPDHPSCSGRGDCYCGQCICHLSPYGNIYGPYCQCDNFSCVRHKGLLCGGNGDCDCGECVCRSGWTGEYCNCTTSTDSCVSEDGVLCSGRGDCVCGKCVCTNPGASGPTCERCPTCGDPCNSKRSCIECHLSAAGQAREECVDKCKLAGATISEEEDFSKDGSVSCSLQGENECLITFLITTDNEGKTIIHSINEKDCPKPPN", "experiment": "competitive ELISA; captured αvβ6; competitor biotinylated fibronectin", "units": {"IC50": "nM"}, "values": [{"binder": "{(^19F)FBA}-RSDLTPLF-{PEG11′-NH2}", "note": "[[^19F]FBA-RSDLTPLF-PEG11-NH2]", "IC50": 40}, {"binder": "{(^19F)FBA-PEG11′}-RSDLTPLF-NH2", "note": "[[^19F]FBA-PEG11-RSDLTPLF-NH2]", "IC50": 40}, {"binder": "{(^19F)FBA-PEG11′}-RSDLTPLF-{PEG11′-NH2}", "note": "[[^19F]FBA-PEG11-RSDLTPLF-PEG11-NH2]", "IC50": 25}, {"binder": "{(^19F)FBA}-RSDLTPLF-NH2", "note": "[[^19F]FBA-RSDLTPLF-NH2]", "IC50": 7}, {"binder": "H-RSDLTPLFK((^19F)FBA)-NH2", "note": "[H-…([^19F]FBA)-NH2]", "IC50": 34}]}]}
